Experiment: yeast display, Sf9 membrane polyspecificity reagent, FACS + sequencing; frameworks hold sequencing errors
How it was run: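 Using colony PCR, genes from sorted yeast display clones were amplified, then sequenced on MiSeq at 2 × 250 and filtered by CDR length. The clones had been stained with 10% biotinylated, detergent-solubilized Sf9 membrane reagent for 1 hour at 4 °C and sorted by FACS into low and high (top ~1%) gates on anti-HA and streptavidin fluorescence. Polyreactivity labels come from the gate of origin.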

Sequence	polyreactivity (PSR sort gate)
QVQLVESGGGLVQAGGSLRLSCAASGFTFHYNAMGWYRQAPGKEREFVAAISGSGDRTYYADSVKGRFTISRDNAKNTVYLQMNSLKPEDTAVYYCATSVRQNYFYSYDYWGQGTQVTVSS	high polyreactivity
QVQLVESGGGLVQAGGSLRLSCAASGRIFQYYAMGWYRQAPGKERELVAAISSAGSTYYADSVKGRFTISRDNAKNTVYLQMNSLKPEDTAVYYCAVGKQVLSYQNYYWGQGTQVTVSS	low polyreactivity
QVQLVESGGGLVQAGGSLRLSCAASGSTFTLNAMGWYRQAPGKERELVADISWSSGRTYYADSVKGRFTISRDTAKNTVYLQMNSLKPEDTAVYYCATEDFWNVKFYAYYPEFDYWGQGTQVTVSS	low polyreactivity
QVQLVESGGGLVQAGGSLRLSCAASGFTFGVYAMGWYRQAPGKERELVAAISRSSGRTYYADSVKGRFTISRDNAKNTVYLQMNSLKPEDTAVYYCAARGYTLSYVDMYYWGQGTQVTVSS	high polyreactivity
QVHLVESGGGLVQAGGSLRLSCAATGSTFPFYTMGWYRQAPGKERELVASISVKGDTTYYADSVKGRFTISRDNAKNTVYLQMNSLKPDDTAVYYCATGPYIWQEWSPGFEYWGQGTQVTVSS	low polyreactivity
QVQLVDSGGGLVQAGGSLRLSCAASGSILGQNAMGGNRQAPGKERELVAAITRGGSSTYYADSVKGRFTISRDNAKNTVYLQMNSLKPEDTAVYYCAAYSSIGYRQISGYYWGEGTQVTVSS	low polyreactivity
QVQLVESCGGLVQAGGSLRLSCAASGSTFVYNSMGWYRQAPGKEREMVDAITWRGSTYYADSVKGRFTISRDNAKNTVYLQMNSLKPEDTAVYYCAARFSNLPEGVTYYYWGQGTQVTVSS	high polyreactivity
QVQLVESGGGLVQAGGSLRLSCAYSGRTFYYNTMGWYRQAPGKEREFVATISRIGGSTYYADSVKGRFTISRDNAKNTVYFQMNSLKPEDTAVYYCAKGRSLNGLPPVVYWQLFYYWGQGTLVTVSS	high polyreactivity
QVQLVESGGGLVQAGGSLRLSCAASGFTFYRNAMGWYRQAPGKERELVAAISRGGRTYYADSVKGRFTISRDNAKNTVYLQMNSLKPEDTAVYYCAVGYSGYGSSMDYWGQGTQVTVSS	high polyreactivity
QVQLVESGGGLVQAGVSLRLSCAASGFNFVFYDMGWYRQAPGKERELVAGITRNDGSTYYADSVKGRFKISRDNAKNTVYLQMNSLKPEDTAVYYCAADRVRRNDKLAYDYWGQGTQVTVSS	low polyreactivity
QVQLVESGGGLVQAGGSLRLSCAASGFTFYRYAMGWYRQAPGKERELVAAFSGSGGSTYYADSVKGRFTISRDNAKNTVYLQMNSLKPEDTAVYYCNTVWFYGAKYDYWGQGTQVTVSS	high polyreactivity
KVQLVESGGSLVQAGGSLRLSSAASGRIITGYAMGWYRQAPGKEWELVAAITGSCVSTYYADSVKGRFTISRDNSKNTVYLQMNSLKPEDTAVYYCAARRYYGYVHWGQGTQVTVSS	high polyreactivity
QVQLVESGGGLVQAGGSLRLSCAASGSIFYLNAMGWYRQAPGKERDLVAAIRWSGGSTRYADSVKGRCTISRDNAKNTVYLQMNSLKPEDTAVYYCAKYNPVLVYHWWYYYWGQGTQVTVSS	high polyreactivity
QVQLVESVGGLVQAGGSLRLSCAASGSTCQRYAIGWYRQAPGKERELVAAISDGGSTNYADSVKGRFTISRDNAKNTVYLQMNSLKPEDTAVSYCAAKYLSRYDYWGQGTQVTVSS	low polyreactivity
QVQHVESGGGLVQAGGGLRLSCAASGRIFRQNTMGWYRHAAGKEWELVASISLSAGSTFYADSVKGRFTISRDNAKNTVYLQMNSLKPEDTAVYYCAAEKPVHYVRGVHYDYWGQGTQVTVSS	low polyreactivity
QDQHGESGGGLVQAGGSLRLSCAASGFIFWSYTMGWYRQAPGKERELVAVITGSGSTYYADSVKGRFTISRDNAKNTVYFQMNSLKPEDTALYYCATEVHVTAWTFEYEYWGQGTQVTVSS	low polyreactivity
QVQLVESGGGLVQAGGSLRLSCAASGLTFPRNTMGWYRQAPGKERELVAVISSSGGITYYADSVKGRFTISRDNAKNTVYLQMNSLKPEDTAVYYCAARTRVPRMGYWGQGTQVTVSS	high polyreactivity
QVQLVESGGGLVQAGGSLRLSCAASGSTFGKYAMGWYRQAPGKERELVATITVSGGNTNYADSVKGRFTISRDNAKNTVYLQMNSLKPEDTAVYYCNAGGRYHAPSGDYWGQGTQVTVSS	low polyreactivity
QVQLVESGGGLVQAGGSLRLSCAASGSTFQYNAMGWYRQAPGKERELVARISSSGGRTYYADSVKGRFTISRDNAKNTVYLQMNSLKPEDTAVYYCNKGYPYVAYDYWGQGTQVTVSS	high polyreactivity
QVQLVESGGGLVQAGGSLRLSCAASGGIFTQYVMGWYRQAPGKERELVAAINWSGGSTTYAYSVKGRFTISRDNAKNTVYLQMNSLKPEVTAVYYCAAYSYREFYYWGQGTQVTVSS	high polyreactivity
QVHLVESGGGLVQAGGSLRLSCAASGRIFSRNVMGWYRQAPGKERELVAAISSSGSTYADSVKGRFTISRDNAKNTVYLQMNSLKPEDTAVYYCAAVIYLWGQGTQVTVSS	high polyreactivity
QVQLVESGGGLVQAGGSLRLSCAASGFTFTTYAMGWYRQAPGKERELVARISRRSGSTYYADSVKGRFTISRDNAKYTVYLQMNSLKPEDTAVYYCNADVDRSTTIFDYWGQGTQVTVSS	high polyreactivity

Sequence	polyreactivity (PSR sort gate)
QVQLVESGGVFVQAGGSLRLSCAASGSIFPYVNAMGWYRQAPGKEREFVASIPGGGGTKYADSVKGRFTISRDNAKNTVYLQMNSLKAEDTAVYYCNATSGNPASTAWMNYWGQGTQVSVSS	low polyreactivity
QVKLVESGGGLVQAGGSLRISCAASGRIFKIYAMGWYRQAPGKERELVAAISRGGRTYYADSVKGRFTISRDNAKNTVDLQMNSLKPEDTEVYYCAADLLISPEFYYWGQGTQVTVSS	high polyreactivity
QVQLVESGGGLVQAGGSLRLSCAASGSTFKAYVMGWYRQAPGKERELVAVISRSGGTTYYADSVKGRFTISRDNAKNTVYLQMNSLKPEDTAVYYCAAQWRYQYPESLESYYWGQGTQVTVSS	high polyreactivity
QVQLVESGGGLVQAGGSLRLSCDASGIIFGYYAMGWYRQAPGKERELVAGITWRGDITYADSVKGRFTISRDNAKNTVYLQMNSLKPEDTAVYYCAAESSFYRGYGYWGQGTQVTVSS	high polyreactivity
QVQLVESGGGLVQAGGSLRLSCAASGRIFYINAMGWSRQAPGKERELVAAITEGGVSTYYADSVKGRFTISRDNAKNTVYLQMNSLKPEDTAVYYCNTTGGPDGIVIYEYWGQGTQVTVSS	low polyreactivity
QVQLVESGGGLVQAGGSLRLSCAASGSIFFWYAMGWYRQAPGKERELVAAISRGGRTTYADSVKGRFTISRDNAKNTVYLQMNSLKPEDTAVYYCAAYRYFTYFYYSDYPYNYWGQGTQVTVSS	high polyreactivity
QVQLVESGGGLVQAGGSLRLSCAASGFIFFYYAMGWYRQAPGKERELVASINWSGGRTYYADSVKGRFTISRDNAKNTVYLQMNSLKPEDTAVYYCAADRRFSTYDYWGQGTQVTVSS	high polyreactivity
QVQLVESGGGLVQAGGSLRLSCAASGNIFETNAMGWYRQAPVKERELVAAISASGGSTYYADSVKGRFTISRDNAKNNVYLQMNSLKPEDTAVYYCNDRVDSYYGDAFDYWGQGTQVTVSS	high polyreactivity
QVQLVESGGGLVQAGGSLRLSCAASGRTFGRYAMGWYRQAPGKERELVARIRTSGGRTYYADSVKGRFTISRDIAKNTVYLLMNSLNPEDTAVYYCGTSSQPWYYWSTQGDDFWGQGTQVSVSS	low polyreactivity
QVQLVESGGGLVQAGGSLRLSCAASGGTFALYAMGWYRQAPGKERELVASISFNGGSTYYADSVKGRFTISRDTAKNTVYLQMNSLKPEDTAVYYCNTGYQWGVYESQTAEEDYWGQGTQVTVSS	low polyreactivity
QVQLVESGGGLVQAGGSLRLSCAASGFIFGKYAMGWYRQAPGKEREVVAAITSGGSTYYADSVKGRFTISRDNAKNTVYLQMNSLKPEDTAVYYCAVPFTFWWSSYRYDYWGQGTQVTVSS	high polyreactivity
QVQLVESGGGLVQAGGSLRLSCAASGRTFRYYAMGWYRQAPGKERELVAAISRRGGSTFYADSVKGRFTISRDNAKNTVYLQMNSLKPEDTAVYYCAAADRYASDTGGYWGQGTQVTVSS	high polyreactivity
QVQLVETGGGLVQAGVSLRLSSAASGITIGKNAMGWYRQEPGKESELVAAITRDGGTNYADSVKGRFTISRDNSKNTVYLQMNRLKPEDTAVYYCAKRAYFYYGRYDYWGQGTQVTVSS	low polyreactivity
QVQLQESGGGLVQAGGSLRLSCAASGYISHADEMGWYRQAPGKEHELVASISNGGSTNYADSVKGRFTISRDNAKNPVNLQMNSLKSEDTAVYYCAALTGQVAIHYYWGQGTQVTVSS	low polyreactivity
QVQLVESGGGLVQAGGSLRLSCAASGRIFDYYAMGWYRQAPGKERELVAAINSGGSTYYADSVKGRFTISRDNAKNTVYLQMNSLKPEDTAVYYCNALRKSLRGGDYWGQGTQVTVSS	high polyreactivity
QVQLVESGGGLVQAGGSLRLSCAASGLTFGDYSMGWYRQAPGKERELVAAITWSGASTYYADSVKGRFTISRDNGMNTVYLQMNSLKPEDTAVYYCAAERTPSYRAYDYWGQGTQVTVSS	low polyreactivity
QVQLVESGGGLVQAGGSLRLSCAASGRTFYGNAMGWYRQAPGKEREFVAGISWRGGRTYYADSVKGRFTISRDNAKNTVYLQMNSLKPEDTAVYYCAASAGYRGRKQYHENGYWGQGTQVTVSS	high polyreactivity
QVQLVESGGGLVQAGGSLRLSCAASGRISVRIYAMGWYRQAPGKERELVAIISRSGGSTYYADSVKGRFTISRDNAKNTVYLQMNSLKPEDTEVYYCNARWSFSYTVWVDSYWCLDDYWGQGTQVTVSS	high polyreactivity
QVQLEDSGRGLFQAGGSLRLSCAASGSNFAHYAMGWYIQAQGKERELVARFSWSGGSTYYADSVKGRFTISRDNAKNTVYLQMNSLKPEDTAVYYCAADHLYWGLEYEPWGQGTQVTVSS	low polyreactivity
QVQLVESGGGLVQAGGSLRLSCAASGSTFSPYAMGWYRQAPGKERELVANITISGGSTYYADSVKGRFTISRDTAKNTVYLQMNSLKPEDTAVYYCNADSLIRWLFTVVILDYWGQGTLVTVSS	low polyreactivity
QVQLVESGGGLVQAGGSLRLSCAASGRIFKSYAMGWYRQAPGKERELVAAISRGGRTNYADSVKGRFTISRDNAKNTVYLQMNSLKPEDTAFYYCAARFVVQGHSSPYDYWGQGTQVTVSS	high polyreactivity

Reference: the nanobody polyreactivity screen of Harvey et al. (2022)
